From patent US20260274955A1 (JANUX THERAPEUTICS, published 2026)

Columns and labels:
[1] = target: T1, Anti-CD28 Fab (SEQ ID NOs: 202, 203); assay: phage ELISA on captured biotinylated Fab;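 further: wells preblocked with or without CD28 antigen, then clonal phage supernatant added briefly, washed, and bound phage read out by ELISA using HRP-linked anti-M13 antibody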
T1 construct: biotinylated and captured on neutravidin coated plates in the phage ELISA
Procedure: (§1) Clonal phage were harvested as crude supernatants and screened via standard ELISAs. […] Prior to the addition of clonal phage, wells were incubated with blocking buffer and CD28 antigen or blocking buffer alone. Without washing or aspirating, clonal phage supernatants were then added to the wells and incubated for a short time. Wells were then washed followed by detection of bound phage using a horse radish conjugated anti-M13 antibody.

[2] = target: T1, Anti-CD28 Fab (SEQ ID NOs: 202, 203); assay: phage ELISA on captured Fab, wells pre-incubated with CD28 antigen (competitor: CD28);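 further: bound clonal phage detected with an HRP-linked anti-M13 antibody, compared against wells that received blocking buffer alone without CD28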
Procedure: as §1

T1 sequence (VH, as listed by the source, chain 1 of 2): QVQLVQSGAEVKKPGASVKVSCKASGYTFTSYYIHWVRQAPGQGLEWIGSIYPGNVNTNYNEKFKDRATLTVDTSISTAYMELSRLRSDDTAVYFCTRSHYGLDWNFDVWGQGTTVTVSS
T1 sequence (VL, as listed by the source, chain 2 of 2): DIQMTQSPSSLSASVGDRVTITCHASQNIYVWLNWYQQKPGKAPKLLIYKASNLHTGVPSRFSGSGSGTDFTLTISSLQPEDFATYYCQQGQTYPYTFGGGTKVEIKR

Binder	Anti-CD28 Fab signal [1]	Anti-CD28 Fab signal in the presence of CD28 [2]
YCAGHLPEYMQKCL [Phage-182]	2.15	0.09
YCDGHSDEYMAKCL [Phage-185]	2.14	0.07
YCEGHLPQYLAKCL [Phage-190]	2.12	0.1
YCEGHSAEYMAKCL [Phage-184]	2.14	0.06
YCDGHSAEYMMKCL [Phage-192]	2.12	0.08
YCDGHSAEYMSKCL [Phage-204]	2.1	0.06
YCEGHSAEYMWKCL [Phage-213]	2.08	0.09
YCEGHSAEYMNKCL [Phage-226]	2.06	0.07
YCDGHASEYMMKCL [Phage-237]	2.05	0.06
YCDGHSSEYMWKCL [Phage-244]	2.03	0.06
YCDGHASEYMWKCL [Phage-286]	1.94	0.06
YCEGHSMEYMAKCL [Phage-295]	1.92	0.07
YCSGHLPEYMSKCL [Phage-245]	2.03	0.09
YCEGHLPEYMSKCL [Phage-181]	2.15	0.07
YCSGHLPEYMEKCL [Phage-210]	2.09	0.09
YCDGHLGIYMWKCL [Phage-183]	2.14	0.08
YCDGHLGIYMTKCL [Phage-268]	1.98	0.08
YCEGHSLEYIGKCL [Phage-186]	2.14	0.06
YCDGHQPEYMAKCL [Phage-187]	2.14	0.07
YCAGHLPEYIDKCL [Phage-219]	2.07	0.08
YCAGHLPEYISKCL [Phage-188]	2.14	0.08
YCAGHMPEYIDKCL [Phage-296]	1.92	0.06
YCDGHIPIYMSKCL [Phage-189]	2.13	0.08
YCDGHSPIYMSKCL [Phage-260]	2	0.09
YCAGHLPLYMEKCL [Phage-191]	2.12	0.06
YCEGHLPQYIPKCL [Phage-193]	2.12	0.07
YCDGHLPVYMAKCL [Phage-195]	2.11	0.09
YCDGHLPAYMAKCL [Phage-222]	2.06	0.12

Binder	Anti-CD28 Fab signal [1]	Anti-CD28 Fab signal in the presence of CD28 [2]
YCMGHSEEYMQKCL [Phage-196]	2.11	0.07
YCDGHLEEYMAKCL [Phage-198]	2.11	0.09
YCSGHAPIYMAKCL [Phage-200]	2.1	0.07
YCSGHAPEYMAKCL [Phage-287]	1.94	0.06
YCAGHTQEYMSKCL [Phage-201]	2.1	0.05
YCEGHSPQYMQKCL [Phage-202]	2.1	0.06
YCEGHSPQYMSKCL [Phage-241]	2.04	0.07
YCDGHVPQYMAKCL [Phage-203]	2.1	0.07
YCQGHLPQYIAKCL [Phage-205]	2.09	0.08
YCAGHLPQYMEKCM [Phage-206]	2.09	0.08
YCAGHLPEHIGKCL [Phage-207]	2.09	0.07
YCEGHTAEYLQKCL [Phage-208]	2.09	0.1
YCAGHSPEYMGKCM [Phage-209]	2.09	0.06
YCAGHLEIYMQKCL [Phage-211]	2.09	0.08
YCEGHAPEHMAKCL [Phage-214]	2.08	0.1
YCDGHAEQYMEKCL [Phage-215]	2.08	0.07
YCEGHSPEYMSHCF [Phage-216]	2.08	0.09
YCEGHSMQHMAKCL [Phage-217]	2.07	0.08
YCDGHAQEFMSKCL [Phage-218]	2.07	0.12
YCEGHAPQYIQKCL [Phage-220]	2.07	0.07
YCLGHAPQYIQKCL [Phage-243]	2.04	0.14
YCDGHELRYMAKCL [Phage-221]	2.07	0.07
YCEGHSDEYMLKCL [Phage-223]	2.06	0.07
YCEGHAPEYMMKCI [Phage-224]	2.06	0.06
YCEGHADIYMQKCL [Phage-225]	2.06	0.07
YCEGHLPIYMDKCL [Phage-228]	2.06	0.08
YCDGHAIEYMQKCL [Phage-229]	2.05	0.07
